Values joined by “and” are separate entries in the source; they are usually repeats but may differ in a detail not shown here. Identical values can stand only once.
Legend:
Crosstide (GRPRTSSFAEG) = system: T1, Crosstide (GRPRTSSFAEG)
T1 sequence: GRPRTSSFAEG

KPRTSSF = system: T2, KPRTSSF
T2 sequence: KPRTSSF

PRTSSF = system: T3, PRTSSF
T3 sequence: PRTSSF

RPKTSSF = system: T4, RPKTSSF
T4 sequence: RPKTSSF

RPRAATF = system: T5, RPRAATF
T5 sequence: RPRAATF

RPRTSAF = system: T6, RPRTSAF
T6 sequence: RPRTSAF

RPRTSSA = system: T7, RPRTSSA
T7 sequence: RPRTSSA

RPRTSSE = system: T8, RPRTSSE
T8 sequence: RPRTSSE

RPRTSSF = system: T9, RPRTSSF
T9 sequence: RPRTSSF

RPRTSSK = system: T10, RPRTSSK
T10 sequence: RPRTSSK

RPRTSSL = system: T11, RPRTSSL
T11 sequence: RPRTSSL

RPRTSSV = system: T12, RPRTSSV
T12 sequence: RPRTSSV

RPRTSS = system: T13, RPRTSS
T13 sequence: RPRTSS

RPRTSTF = system: T14, RPRTSTF
T14 sequence: RPRTSTF

| Substance | kinase activity toward peptide (30 µM), relative to peptide 1 (Crosstide) (Crosstide (GRPRTSSFAEG)) | kinase activity toward peptide (30 µM), relative to peptide 1 (Crosstide) (KPRTSSF) | kinase activity toward peptide (30 µM), relative to peptide 1 (Crosstide) (PRTSSF) | kinase activity toward peptide (30 µM), relative to peptide 1 (Crosstide) (RPKTSSF) | kinase activity toward peptide (30 µM), relative to peptide 1 (Crosstide) (RPRAATF) | kinase activity toward peptide (30 µM), relative to peptide 1 (Crosstide) (RPRTSAF) | kinase activity toward peptide (30 µM), relative to peptide 1 (Crosstide) (RPRTSSA) | kinase activity toward peptide (30 µM), relative to peptide 1 (Crosstide) (RPRTSSE) | kinase activity toward peptide (30 µM), relative to peptide 1 (Crosstide) (RPRTSSF) | kinase activity toward peptide (30 µM), relative to peptide 1 (Crosstide) (RPRTSSK) | kinase activity toward peptide (30 µM), relative to peptide 1 (Crosstide) (RPRTSSL) | kinase activity toward peptide (30 µM), relative to peptide 1 (Crosstide) (RPRTSSV) | kinase activity toward peptide (30 µM), relative to peptide 1 (Crosstide) (RPRTSS) | kinase activity toward peptide (30 µM), relative to peptide 1 (Crosstide) (RPRTSTF) |
| --- | --- | --- | --- | --- | --- | --- | --- | --- | --- | --- | --- | --- | --- | --- |
| GST-PKBα | 100% | 6% | < 1% | 26% | 55% | < 1% | 26% | 21% | 160% | 48% | 69% | 67% | < 1% | 208% |
| GST-SGK2α[S356D] | 100% | < 1% | < 1% | 8% | 61% | < 1% | 82% | 34% | 182% | 128% | 185% | 124% | 8% | 192% |
| GST-ΔN-SGK3[S419D] | 100% | < 1% | < 1% | 48% | 56% | < 1% | 123% | 67% | 137% | 200% | 113% | 139% | 18% | 156% |
| GST-ΔN-SGK(61-431)[S422D] | 100% | 2% and < 1% | < 1% |  |  | < 1% |  |  | 154% and 135% |  |  |  | 5.1% and 10% |  |

Source: patent US7083511
